From US20170333517

T1: N-acetyl-proline-glycine-proline
T1 chain: PGP


Molecular target: T1, N-acetyl-proline-glycine-proline

| Protein | degradation of Ac-PGP (residual Ac-PGP by ESI-LC-MS/MS after 24 h; 1 µg/ml enzyme, 100 µg/ml Ac-PGP) |
| --- | --- |
| recombinant human angiotensin converting enzyme (protein) LDPGLQPGNFSADEAGAQLFAQSYNSSAEQVLFQSVAASWAHDTNITAENARRQEEAALLSQEFAEAWGQKAKELYEPIWQNFTDPQLRRIIGAVRTLGSANLPLAKRQQYNALLSNMSRIYSTAKVCLPNKTATCWSLDPDLTNILASSRSYAMLLFAWEGWHNAAGIPLKPLYEDFTALSNEAYKQDGFTDTGAYWRSWYNSPTFEDDLEHLYQQLEPLYLNLHAFVRRALHRRYGDRYINLRGPIPAHLLGDMWAQSWENIYDMVVPFPDKPNLDVTSTMLQQGWNATHMFRVAEEFFTSLELSPMPPEFWEGSMLEKPADGREVVCHASAWDFYNRKDFRIKQCTRVTMDQLSTVHHEMGHIQYYLQYKDLPVSLRRGANPGFHEAIGDVLALSVSTPEHLHKIGLLDRVTNDTESDINYLLKMALEKIAFLPFGYLVDQWRWGVFSGRTPPSRYNFDWWYLRTKYQGICPPVTRNETHFDAGAKFHVPNVTPYIRYFVSFVLQFQFHEALCKEAGYEGPLHQCDIYRSTKAGAKLRKVLQAGSSRPWQEVLKDMVGLDALDAQPLLKYFQPVTQWLQEQNQQNGEVLGWPEYQWHPPLPDNYPEGIDLVTDEAEASKFVEEYDRTSQVVWNEYAEANWNYNTNITTETSKILLQKNMQIANHTLKYGTQARKFDVNQLQNTTIKRIIKKVQDLERAALPAQELEEYNKILLDMETTYSVATVCHPNGSCLQLEPDLTNVMATSRKYEDLLWAWEGWRDKAGRAILQFYPKYVELINQAARLNGYVDAGDSWRSMYETPSLEQDLERLFQELQPLYLNLHAYVRRALHRHYGAQHINLEGPIPAHLLGNMWAQTWSNIYDLVVPFPSAPSMDTTEAMLKQGWTPRRMFKEADDFFTSLGLLPVPPEFWNKSMLEKPTDGREVVCHASAWDFYNGKDFRIKQCTTVNLEDLVVAHHEMGHIQYFMQYKDLPVALREGANPGFHEAIGDVLALSVSTPKHLHSLNLLSSEGGSDEHDINFLMKMALDKIAFIPFSYLVDQWRWRVFDGSITKENYNQEWWSLRLKYQGLCPPVPRTQGDFDPGAKFHIPSSVPYIRYFVSFIIQFQFHEALCQAAGHTGPLHKCDIYQSKEAGQRLATAMKLGFSRPWPEAMQLITGQPNMSASAMLSYFKPLLDWLRTENELHGEKLGWPQYNWTPNSARSEGPLPDSGRVSFLGLDLDAQQARVGQWL | ACE degraded 70% of Ac-PGP |
| recombinant human aminopeptidase N (protein) KAWNRYRLPNTLKPDSYRVTLRPYLTPNDRGLYVFKGSSTVRFTCKEATDVIIIHSKKLNYTLSQGHRVVLRGVGGSQPPDIDKTELVEPTEYLVVHLKGSLVKDSQYEMDSEFEGELADDLAGFYRSEYMEGNVRKVVATTQMQAADARKSFPCFDEPAMKAEFNITLIHPKDLTALSNMLPKGPSTPLPEDPNWNVTEFHTTPKMSTYLLAFIVSEFDYVEKQASNGVLIRIWARPSAIAAGHGDYALNVTGPILNFFAGHYDTPYPLPKSDQIGLPDFNAGAMENWGLVTYRENSLLFDPLSSSSSNKERVVTVIAHELAHQWFGNLVTIEWWNDLWLNEGFASYVEYLGADYAEPTWNLKDLMVLNDVYRVMAVDALASSHPLSTPASEINTPAQISELFDAISYSKGASVLRMLSSFLSEDVFKQGLASYLHTFAYQNTIYLNLWDHLQEAVNNRSIQLPTTVRDIMNRWTLQMGFPVITVDTSTGTLSQEHFLLDPDSNVTRPSEFNYVWIVPITSIRDGRQQQDYWLIDVRAQNDLFSTSGNEWVLLNLNVTGYYRVNYDEENWRKIQTQLQRDHSAIPVINRAQIINDAFNLASAHKVPVTLALNNTLFLIEERQYMPWEAALSSLSYFKLMFDRSEVYGPMKNYLKKQVTPLFIHFRNNTNNWREIPENLMDQYSEVNAISTACSNGVPECEEMVSGLFKQWMENPNNNPIHPNLRSTVYCNAIAQGGEEEWDFAWEQFRNATLVNEADKLRAALACSKELWILNRYLSYTLNPDLIRKQDATSTIISITNNVIGQGLVWDFVQSNWKKLFNDYGGGSFSFSNLIQAVTRRFSTEYELQQLEQFKKDNEETGFGSGTRALEQALEKTKANIKWVKENKEVVLQWFTENSK | APN had no activity |
